Assay results published in patent US20040146896A1, “Methods and compositions for diagnosing and treating companion animal cancer” (priority 2002, published 2004).

How the values were obtained:
Format in all cases: cell-based
U937 human tumor cells [1] = experiment: Cell Death Detection ELISA apoptosis assay, U937
Experimental: 4. Cell Death Detection ELISA Plus assay for apoptosis. The assay is based on a quantitative sandwich-enzyme-immunoassay-principle using mouse monoclonal antibodies directed against DNA and histones, respectively. This allows the specific determination of mono- and oligonucleosomes in the cytoplasmatic fraction of cell lysates. Roche kit, Cat. # 1 774 425, was used for this assay. 0.1 ml of U937 or any other types of cells (2×104 ) and 0.1 ml of tissue culture supernatant or other solutions containing apoptosis inducing agents (e.g. TRAIL) were used for this assay in 48-well plate. After 24 or 48 hrs of incubation at 3 7° C., the cells were spun at 2,000 rpm for 10 minutes. Cell pellet was then resuspended in 200 ul lysis buffer and incubated for 30 minutes at room temperature. The cell lysate was then centrifuged at 2,000 rpm for 10 minutes and diluted at 1:10 with incubation buffer. 20 ul of diluted lysate was added to coated plate (MTP from kit) and 80 ul of the immunoreagent was added to each well. MTP was then covered with adhesive cover foil and incubated under gentle shaking for 2 hours at room temperature. The solution was then removed thoroughly by tapping and subsequently rinsed 3 times with 250 ul incubation buffer. 100 ul ABTS solution was added and incubated on a plate shaker at 250 rpm for 15 minutes. Readings at 405 nm and 490 nm (background) were done on ELISA reader. […]

U937 human tumor cells [2] = experiment: Annexin V FACS apoptosis assay, U937
Text: 5. Annexin V apoptosis assay. ApoScreen Annexin V Apoptosis Kit (Cat. No. 10010-02, Southern Biotechnology Assoc. Inc.) was used for this assay. Annexin V detects the change in position of phosphatidy serine (PS) in the cell membrane. In non-apoptotic cells, most phosphatidyl serine molecules are at the inner layer of the plasma membrane. After inducing apoptosis, PS redistributes to the outer layer of the membrane. PS translocation precedes other apoptotic events allowing early detection of apoptosis. 1 ml of U937 cells (2×10^4) or any other types of cells and 1 ml of supernatant or other solutions containing apoptosis inducing agents (e.g. TRAIL) were used for assay in 6-well plate. After 48 hrs of incubation, cells were washed in 2 ml of cold PBS (Phosphate-buffered saline) and resuspended in 100 ul of cold 1× binding buffer. 10 ul of Annexin V-FITC was added to each tube and the tube was gently vortexed and subsequently incubated for 15 minutes in the dark at 4° C. 200 ul of cold 1× binding buffer was added to each tube and 10 ul-of PI was also added to each tube. The staining was then analyzed by flow cytometry.
U937 human tumor cells were grown in the presence or absence of TRAIL proteins produced from conditioned media of transfected 293 cells. The apoptosis of U937 cells induced by conditioned media was measured in this assay. […]

canine cell lines = experiment: Cell Death ELISA apoptosis assay, canine cell lines; conditions: 100 ng/ml (FIG. 20B and data not shown)
Experimental: 4. Cell Death Detection ELISA Plus assay for apoptosis. The assay is based on a quantitative sandwich-enzyme-immunoassay-principle using mouse monoclonal antibodies directed against DNA and histones, respectively. This allows the specific determination of mono- and oligonucleosomes in the cytoplasmatic fraction of cell lysates. Roche kit, Cat. # 1 774 425, was used for this assay. 0.1 ml of U937 or any other types of cells (2×104 ) and 0.1 ml of tissue culture supernatant or other solutions containing apoptosis inducing agents (e.g. TRAIL) were used for this assay in 48-well plate. After 24 or 48 hrs of incubation at 3 7° C., the cells were spun at 2,000 rpm for 10 minutes. Cell pellet was then resuspended in 200 ul lysis buffer and incubated for 30 minutes at room temperature. The cell lysate was then centrifuged at 2,000 rpm for 10 minutes and diluted at 1:10 with incubation buffer. 20 ul of diluted lysate was added to coated plate (MTP from kit) and 80 ul of the immunoreagent was added to each well. MTP was then covered with adhesive cover foil and incubated under gentle shaking for 2 hours at room temperature. The solution was then removed thoroughly by tapping and subsequently rinsed 3 times with 250 ul incubation buffer. 100 ul ABTS solution was added and incubated on a plate shaker at 250 rpm for 15 minutes. Readings at 405 nm and 490 nm (background) were done on ELISA reader.

B1: human commercial TRAIL: human TRAIL (Upstate Biotechnology, 100 ng/ml), positive control (protein, UniProt P50591 1-281, looked up)
Tumor necrosis factor ligand …: MAMMEVQGGPSLGQTCVLIVIFTVLLQSLCVAVTYVYFTNELKQMQDKYSKSGIACFLKEDDSYWDPNDEESMNSPCWQVKWQLRQLVRKMILRTSEETISTVQEKQQNISPLVRERGPQRVAAHITGTRGRSNTLSSPNSKNEKALGRKINSWESSRSGHSFLSNLHLRNGELVIHEKGFYYIYSQTYFRFQEEIKENTKNDKQMVQYIYKYTSYPDPILLMKSARNSCWSKDAEYGLYSIYQGGIFELKENDRIFVSVTNEHLIDMDHEASFFGAFLVG
apoptosis specific cell death of U937 cells, times that of control (U937 human tumor cells [1]; conditioned media of transfected 293 cells, two independent experiments (FIG. 9B)): 7 times that of control | induction of apoptosis of U937 cells, in words (U937 human tumor cells [1]; mammalian expressed TRAIL supernatants, commercial human TRAIL and Fas ligand 100 ng/ml (FIGS. 19B, 20B, 21B)): induced potent apoptosis | apoptosis of U937 cells (U937 human tumor cells [2]; conditioned media of transfected 293 cells, background 15-20% (FIG. 9C)): 45% | apoptosis of U937 cells (U937 human tumor cells [2]; experiment with bacteria expressed semi-purified TRAIL-Thio proteins (FIG. 12)): above 85% | effect on canine cell lines, in words (canine cell lines): very minimal
